# Assay results reported in IntAct's records for PubMed 16868027.
# B1: Disintegrin and metalloproteinase domain-containing protein 22 (Homo sapiens), Q9P0K1-1 (parent)
# chain: MQAAVAVSVPFLLLCVLGTCPPARCGQAGDASLMELEKRKENRFVERQSIVPLRLIYRSGGEDESRHDALDTRVRGDLGGPQLTHVDQASFQVDAFGTSFILDVVLNHDLLSSEYIERHIEHGGKTVEVKGGEHCYYQGHIRGNPDSFVALSTCHGLHGMFYDGNHTYLIEPEENDTTQEDFHFHSVYKSRLFEFSLDDLPSEFQQVNITPSKFILKPRPKRSKRQLRRYPRNVEEETKYIELMIVNDHLMFKKHRLSVVHTNTYAKSVVNMADLIYKDQLKTRIVLVAMETWATDNKFAISENPLITLREFMKYRRDFIKEKSDAVHLFSGSQFESSRSGAAYIGGICSLLKGGGVNEFGKTDLMAVTLAQSLAHNIGIISDKRKLASGECKCEDTWSGCIMGDTGYYLPKKFTQCNIEEYHDFLNSGGGACLFNKPSKLLDPPECGNGFIETGEECDCGTPAECVLEGAECCKKCTLTQDSQCSDGLCCKKCKFQPMGTVCREAVNDCDIRETCSGNSSQCAPNIHKMDGYSCDGVQGICFGGRCKTRDRQCKYIWGQKVTASDKYCYEKLNIEGTEKGNCGKDKDTWIQCNKRDVLCGYLLCTNIGNIPRLGELDGEITSTLVVQQGRTLNCSGGHVKLEEDVDLGYVEDGTPCGPQMMCLEHRCLPVASFNFSTCLSSKEGTICSGNGVCSNELKCVCNRHWIGSDCNTYFPHNDDAKTGITLSGNGVAGTNIIIGIIAGTILVLALILGITAWGYKNYREQRQLPQGDYVKKPGDGDSFYSDIPPGVSTNSASSSKKRSNGLSHSWSERIPDTKHISDICENGRPRSNSWQGNLGGNKKKIRGKRFRPRSNSTETLSPAKSPSSSTGSIASSRKYPYPMPPLPDEDKKVNRQSARLWETSI
# B2: Disintegrin and metalloproteinase domain-containing protein 22 (Homo sapiens), Q9P0K1-1 (parent)
# chain: B1 chain
# partner: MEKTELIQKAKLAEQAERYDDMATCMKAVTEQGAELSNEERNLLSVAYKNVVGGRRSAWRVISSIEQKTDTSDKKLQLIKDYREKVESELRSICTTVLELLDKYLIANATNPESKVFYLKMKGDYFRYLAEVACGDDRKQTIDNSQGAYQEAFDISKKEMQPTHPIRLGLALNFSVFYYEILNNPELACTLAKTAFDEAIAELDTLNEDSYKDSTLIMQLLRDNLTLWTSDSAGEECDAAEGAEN
# B3: Disintegrin and metalloproteinase domain-containing protein 22 (Homo sapiens), Q9P0K1-3 (parent)
# chain: MQAAVAVSVPFLLLCVLGTCPPARCGQAGDASLMELEKRKENRFVERQSIVPLRLIYRSGGEDESRHDALDTRVRGDLGGPQLTHVDQASFQVDAFGTSFILDVVLNHDLLSSEYIERHIEHGGKTVEVKGGEHCYYQGHIRGNPDSFVALSTCHGLHGMFYDGNHTYLIEPEENDTTQEDFHFHSVYKSRLFEFSLDDLPSEFQQVNITPSKFILKPRPKRSKRQLRRYPRNVEEETKYIELMIVNDHLMFKKHRLSVVHTNTYAKSVVNMADLIYKDQLKTRIVLVAMETWATDNKFAISENPLITLREFMKYRRDFIKEKSDAVHLFSGSQFESSRSGAAYIGGICSLLKGGGVNEFGKTDLMAVTLAQSLAHNIGIISDKRKLASGECKCEDTWSGCIMGDTGYYLPKKFTQCNIEEYHDFLNSGGGACLFNKPSKLLDPPECGNGFIETGEECDCGTPAECVLEGAECCKKCTLTQDSQCSDGLCCKKCKFQPMGTVCREAVNDCDIRETCSGNSSQCAPNIHKMDGYSCDGVQGICFGGRCKTRDRQCKYIWGQKVTASDKYCYEKLNIEGTEKGNCGKDKDTWIQCNKRDVLCGYLLCTNIGNIPRLGELDGEITSTLVVQQGRTLNCSGGHVKLEEDVDLGYVEDGTPCGPQMMCLEHRCLPVASFNFSTCLSSKEGTICSGNGVCSNELKCVCNRHWIGSDCNTYFPHNDDAKTGITLSGNGVAGTNIIIGIIAGTILVLALILGITAWGYKNYREQRQLPQGDYVKKPGDGDSFYSDIPPGVSTNSASSSKKRSNGLSHSWSERIPDTKHISDICENGRPRSNSWQGNLGGNKKKIRGKRFRPRSNSTE
# Variants of: B1
# Settings: with 1433z_human YWHAZ
row,effect of a mutation on the interaction,Variant
1,disrupting interaction,R831Q;S832G;R854Q;S855A

# Variants of: B1
# Settings: with 1433b_human YWHAB
row,effect of a mutation on the interaction,Variant
1,disrupting interaction,R831Q;S832G;R854Q;S855A

# Variants of: B2
# Settings: with 1433t_human YWHAQ
row,effect of a mutation on the interaction,Variant
1,disrupting interaction,R831Q;S832G;R854Q;S855A

# Variants of: B3
# Settings: with 1433b_human YWHAB
row,effect of a mutation on the interaction,Variant
1,decreasing interaction,R831Q;S832G
2,decreasing interaction,R854Q;S855A
3,disrupting interaction,R831Q;S832G;R854Q;S855A

# Variants of: B3
# Settings: with 1433z_human YWHAZ
row,effect of a mutation on the interaction,Variant
1,decreasing interaction,R831Q;S832G
2,disrupting interaction,R831Q;S832G;R854Q;S855A
